70 variants from article PMC12102759 (2025) can be followed below.

The chains are these.
B1: RNF115 peptide 67-82 (E3 ubiquitin-protein ligase RNF115), 16-mer library wild type / MDM2 SWIB (MDM2 SWIB/MDM2 domain, residues 17-125) (parent complex)
chain 1: TTTHFAELWGHLDHTM
chain 2: SQIPASEQETLVRPKPLLLKLLKSVGAQKDTYTMKEVLFYLGQYIMTKRLYDEKQQHIVYCSNDLLGDLFGVPSFSVKEHRKIYTMIYRNLVVVNQQESSDSGTSVSEN

In this test the parent is B1. As to the kind of experiment: proteomic peptide phage display deep mutational scan (ProP-PD DMS): M13 P8 16-mer library selected against immobilised GST-tagged bait for four days (rounds), NGS of the eluted pools per day and pseudo-replica; bait immobilised on MaxiSorp plates (10 µg), library pre-cleared on GST, 2 h binding at 4 °C, five washes; one round per day, days 1-4; value from days 2 and 3.
Regarding chain 1 H4L, the screen value is 0.000482 average fractional NGS count over selection days 2 and 3 (reads of this peptide / all reads for the bait, averaged over …. On to chain 1 H4D, for which the screen value was 0.000343 average fractional NGS count over selection days 2 and 3 (reads of this peptide / all reads for the bait, averaged over …. As for chain 1 H4G, the screen value is 0.00192 average fractional NGS count over selection days 2 and 3 (reads of this peptide / all reads for the bait, averaged over …. The value for chain 1 H4N was 0.000308 average fractional NGS count over selection days 2 and 3 (reads of this peptide / all reads for the bait, averaged over ….

For chain 1 F5S, the screen value was 0.000118 average fractional NGS count over selection days 2 and 3 (reads of this peptide / all reads for the bait, averaged over ….

For chain 1 F5T, the screen value is 7.7e-05 average fractional NGS count over selection days 2 and 3 (reads of this peptide / all reads for the bait, averaged over ….

Regarding chain 1 F5Y, the screen value is 0.0001 average fractional NGS count over selection days 2 and 3 (reads of this peptide / all reads for the bait, averaged over …. Consider chain 1 F5Q, for which the screen value was 0.00091 average fractional NGS count over selection days 2 and 3 (reads of this peptide / all reads for the bait, averaged over ….

Take chain 1 E7D: the screen value is 0.000661 average fractional NGS count over selection days 2 and 3 (reads of this peptide / all reads for the bait, averaged over ….

Consider chain 1 E7I, for which the screen value is 0.000492 average fractional NGS count over selection days 2 and 3 (reads of this peptide / all reads for the bait, averaged over …. On to chain 1 M16I, for which the screen value was 0.000492 average fractional NGS count over selection days 2 and 3 (reads of this peptide / all reads for the bait, averaged over …. The same measure for chain 1 M16T: 0.00044 average fractional NGS count over selection days 2 and 3 (reads of this peptide / all reads for the bait, averaged over …; for chain 1 M16A: 9.05e-05 average fractional NGS count over selection days 2 and 3 (reads of this peptide / all reads for the bait, averaged over …. chain 1 M16W: the screen value is 0.000718 average fractional NGS count over selection days 2 and 3 (reads of this peptide / all reads for the bait, averaged over …. As for chain 1 M16E, the screen value was 0.000437 average fractional NGS count over selection days 2 and 3 (reads of this peptide / all reads for the bait, averaged over …. The value for chain 1 M16Y was 0.000534 average fractional NGS count over selection days 2 and 3 (reads of this peptide / all reads for the bait, averaged over …; that for chain 1 T2Y was 0.000215 average fractional NGS count over selection days 2 and 3 (reads of this peptide / all reads for the bait, averaged over ….

Take chain 1 T2S: the screen value is 0.000484 average fractional NGS count over selection days 2 and 3 (reads of this peptide / all reads for the bait, averaged over …. Regarding chain 1 T2L, the screen value was 0.000556 average fractional NGS count over selection days 2 and 3 (reads of this peptide / all reads for the bait, averaged over ….

For the variant chain 1 T2M, the screen value is 0.000321 average fractional NGS count over selection days 2 and 3 (reads of this peptide / all reads for the bait, averaged over …. The value for chain 1 T2D was 0.00164 average fractional NGS count over selection days 2 and 3 (reads of this peptide / all reads for the bait, averaged over …; that for chain 1 T2I was 0.00157 average fractional NGS count over selection days 2 and 3 (reads of this peptide / all reads for the bait, averaged over …; that for chain 1 T2E was 0.0056 average fractional NGS count over selection days 2 and 3 (reads of this peptide / all reads for the bait, averaged over …. The same measure for chain 1 A6W: 0.000676 average fractional NGS count over selection days 2 and 3 (reads of this peptide / all reads for the bait, averaged over …; for chain 1 A6H: 0.00017 average fractional NGS count over selection days 2 and 3 (reads of this peptide / all reads for the bait, averaged over …; for chain 1 A6Q: 0.000266 average fractional NGS count over selection days 2 and 3 (reads of this peptide / all reads for the bait, averaged over ….

On to chain 1 A6S, for which the screen value was 0.000754 average fractional NGS count over selection days 2 and 3 (reads of this peptide / all reads for the bait, averaged over …. Consider chain 1 A6M, for which the screen value is 0.00215 average fractional NGS count over selection days 2 and 3 (reads of this peptide / all reads for the bait, averaged over …. Turning to chain 1 G10Q, the screen value was 0.000894 average fractional NGS count over selection days 2 and 3 (reads of this peptide / all reads for the bait, averaged over …. The value for chain 1 G10M was 0.00144 average fractional NGS count over selection days 2 and 3 (reads of this peptide / all reads for the bait, averaged over …; that for chain 1 G10L was 0.000164 average fractional NGS count over selection days 2 and 3 (reads of this peptide / all reads for the bait, averaged over …. The same measure for chain 1 G10N: 0.000457 average fractional NGS count over selection days 2 and 3 (reads of this peptide / all reads for the bait, averaged over ….

Take chain 1 G10A: the screen value was 0.00678 average fractional NGS count over selection days 2 and 3 (reads of this peptide / all reads for the bait, averaged over …. Turning to chain 1 G10T, the screen value was 0.000148 average fractional NGS count over selection days 2 and 3 (reads of this peptide / all reads for the bait, averaged over …. The same measure for chain 1 G10Y: 0.000227 average fractional NGS count over selection days 2 and 3 (reads of this peptide / all reads for the bait, averaged over …; for chain 1 L8M: 0.000104 average fractional NGS count over selection days 2 and 3 (reads of this peptide / all reads for the bait, averaged over …; for chain 1 L8I: 7.89e-05 average fractional NGS count over selection days 2 and 3 (reads of this peptide / all reads for the bait, averaged over …. Regarding chain 1 L8W, the screen value was 0.00339 average fractional NGS count over selection days 2 and 3 (reads of this peptide / all reads for the bait, averaged over ….

Take chain 1 L8Y: the screen value is 0.0291 average fractional NGS count over selection days 2 and 3 (reads of this peptide / all reads for the bait, averaged over ….

For the variant chain 1 L8F, the screen value is 0.000568 average fractional NGS count over selection days 2 and 3 (reads of this peptide / all reads for the bait, averaged over ….

As for chain 1 L8H, the screen value is 0.000131 average fractional NGS count over selection days 2 and 3 (reads of this peptide / all reads for the bait, averaged over ….

Consider chain 1 T3W, for which the screen value was 0.00105 average fractional NGS count over selection days 2 and 3 (reads of this peptide / all reads for the bait, averaged over …. Take chain 1 T3Y: the screen value is 0.000753 average fractional NGS count over selection days 2 and 3 (reads of this peptide / all reads for the bait, averaged over …. The value for chain 1 T3G was 0.000204 average fractional NGS count over selection days 2 and 3 (reads of this peptide / all reads for the bait, averaged over …; that for chain 1 T3V was 0.000622 average fractional NGS count over selection days 2 and 3 (reads of this peptide / all reads for the bait, averaged over ….

On to chain 1 T3A, for which the screen value was 0.000681 average fractional NGS count over selection days 2 and 3 (reads of this peptide / all reads for the bait, averaged over …. As for chain 1 T3D, the screen value was 0.000232 average fractional NGS count over selection days 2 and 3 (reads of this peptide / all reads for the bait, averaged over ….

With chain 1 T3H, the screen value was 0.000104 average fractional NGS count over selection days 2 and 3 (reads of this peptide / all reads for the bait, averaged over ….

For the variant chain 1 T3S, the screen value is 0.000431 average fractional NGS count over selection days 2 and 3 (reads of this peptide / all reads for the bait, averaged over ….

Regarding chain 1 T3L, the screen value was 0.00187 average fractional NGS count over selection days 2 and 3 (reads of this peptide / all reads for the bait, averaged over …. With chain 1 T3I, the screen value is 0.00069 average fractional NGS count over selection days 2 and 3 (reads of this peptide / all reads for the bait, averaged over …. In the case of chain 1 T3Q, the screen value is 0.000196 average fractional NGS count over selection days 2 and 3 (reads of this peptide / all reads for the bait, averaged over …. Consider chain 1 T15F, for which the screen value was 0.00191 average fractional NGS count over selection days 2 and 3 (reads of this peptide / all reads for the bait, averaged over …. Consider chain 1 T15G, for which the screen value was 0.0009 average fractional NGS count over selection days 2 and 3 (reads of this peptide / all reads for the bait, averaged over …. As to chain 1 T15H, the screen value is 0.000116 average fractional NGS count over selection days 2 and 3 (reads of this peptide / all reads for the bait, averaged over …. The value for chain 1 T15Y was 0.00205 average fractional NGS count over selection days 2 and 3 (reads of this peptide / all reads for the bait, averaged over …; that for chain 1 T15V was 0.00407 average fractional NGS count over selection days 2 and 3 (reads of this peptide / all reads for the bait, averaged over …. The same measure for chain 1 T15A: 0.000886 average fractional NGS count over selection days 2 and 3 (reads of this peptide / all reads for the bait, averaged over …. For the variant chain 1 T15L, the screen value was 7.38e-05 average fractional NGS count over selection days 2 and 3 (reads of this peptide / all reads for the bait, averaged over …. For the variant chain 1 T15W, the screen value was 0.00561 average fractional NGS count over selection days 2 and 3 (reads of this peptide / all reads for the bait, averaged over …. As to chain 1 T15M, the screen value was 0.00385 average fractional NGS count over selection days 2 and 3 (reads of this peptide / all reads for the bait, averaged over …. In the case of chain 1 H14V, the screen value is 0.00211 average fractional NGS count over selection days 2 and 3 (reads of this peptide / all reads for the bait, averaged over …. The value for chain 1 H14T was 0.000601 average fractional NGS count over selection days 2 and 3 (reads of this peptide / all reads for the bait, averaged over …; that for chain 1 H14M was 0.00126 average fractional NGS count over selection days 2 and 3 (reads of this peptide / all reads for the bait, averaged over ….

Regarding chain 1 H14A, the screen value is 0.00138 average fractional NGS count over selection days 2 and 3 (reads of this peptide / all reads for the bait, averaged over ….

As for chain 1 H14L, the screen value is 0.00317 average fractional NGS count over selection days 2 and 3 (reads of this peptide / all reads for the bait, averaged over …. The same measure for chain 1 H14Y: 0.00813 average fractional NGS count over selection days 2 and 3 (reads of this peptide / all reads for the bait, averaged over …; for chain 1 H14S: 0.00046 average fractional NGS count over selection days 2 and 3 (reads of this peptide / all reads for the bait, averaged over …; for chain 1 H14I: 0.00129 average fractional NGS count over selection days 2 and 3 (reads of this peptide / all reads for the bait, averaged over …. As to chain 1 H14E, the screen value is 9.03e-05 average fractional NGS count over selection days 2 and 3 (reads of this peptide / all reads for the bait, averaged over ….
